Experimental data reported in patent US10662413B2, “Recombinant DNA polymerase for improved incorporation of nucleotide analogues” (PERSONAL GENOMICS, INC., priority 2016, dated 2020).
Positions count from the first letter of the chain named. In names and notes the source's numbering stands.

T1: Bst-Lg (Bst Large fragment DNA polymerase) (Geobacillus stearothermophilus, UniProt P52026)
T1 construct: Bst Large fragment DNA polymerase; purchased New England Biolabs
T1 sequence (P52026 289-876 limits assumed): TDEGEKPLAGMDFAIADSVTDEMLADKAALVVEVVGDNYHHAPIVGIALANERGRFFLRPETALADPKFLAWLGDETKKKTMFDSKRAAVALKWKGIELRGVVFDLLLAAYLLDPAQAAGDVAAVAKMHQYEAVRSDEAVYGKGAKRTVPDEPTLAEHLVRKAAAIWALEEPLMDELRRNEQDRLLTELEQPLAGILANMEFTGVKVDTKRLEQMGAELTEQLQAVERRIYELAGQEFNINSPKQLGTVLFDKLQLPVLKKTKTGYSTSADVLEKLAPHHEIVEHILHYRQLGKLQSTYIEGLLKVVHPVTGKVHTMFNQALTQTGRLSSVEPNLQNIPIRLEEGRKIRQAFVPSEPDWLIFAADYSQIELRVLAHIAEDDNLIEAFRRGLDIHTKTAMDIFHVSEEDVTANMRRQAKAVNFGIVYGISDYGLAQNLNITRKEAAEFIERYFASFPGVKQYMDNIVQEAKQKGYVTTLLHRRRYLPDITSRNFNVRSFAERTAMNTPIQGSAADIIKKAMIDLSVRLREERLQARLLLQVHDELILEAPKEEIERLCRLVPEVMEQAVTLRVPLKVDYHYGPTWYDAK

B1: KOD^exo−: KOD^exo− DNA polymerase with mutations at residues 141 and 143 (SEQ ID NO: 5) (protein)
chain: MILDTDYITEDGKPVIRIFKKENGEFKIEYDRTFEPYFYALLKDDSAIEEVKKITAERHGTVVTVKRVEKVQKKFLGRPVEVWKLYFTHPQDVPAIRDKIREHPAVIDIYEYDIPFAKRYLIDKGLVPMEGDEELKMLAFAIATLYHEGEEFAEGPILMISYADEEGARVITWKNVDLPYVDVVSTEREMIKRFLRVVKEKDPDVLITYNGDNFDFAYLKKRCEKLGINFALGRDGSEPKIQRMGDRFAVEVKGRIHFDLYPVIRRTINLPTYTLEAVYEAVFGQPKEKVYAEEITTAWETGENLERVARYSMEDAKVTYELGKEFLPMEAQLSRLIGQSLWDVSRSSTGNLVEWFLLRKAYERNELAPNKPDEKELARRRQSYEGGYVKEPERGLWENIVYLDFRSLYPSIIITHNVSPDTLNREGCKEYDVAPQVGHRFCKDFPGFIPSLLGDLLEERQKIKKKMKATIDPIERKLLDYRQRAIKILANSYYGYYGYARARWYCKECAESVTAWGREYITMTIKEIEEKYGFKVIYSDTDGFFATIPGADAETVKKKAMEFLKYINAKLPGALELEYEGFYKRGFFVTKKKYAVIDEEGKITTRGLEIVRRDWSEIAKETQARVLEALLKDGDVEKAVRIVKEVTEKLSKYEVPPEKLVIHEQITRDLKDYKATGPHVAVAKRLAARGVKIRPGTVISYIVLKGSGRIGDRAIPFDEFDPTKHKYDAEYYIENQVLPAVERILRAFGYRKEDLRYQKTRQVGLSAWLKPKGT
modifications: Thermococcus kodakarensis kod1; KODexo- DNA polymerase
B2: D480R: 9° N-III mutant D480R, nucleotide binding pocket (protein)
chain: MILDTDYITENGKPVIRVFKKENGEFKIEYDRTFEPYFYALLKDDSAIEDVKKVTAKRHGTVVKVKRAEKVQKKFLGRPIEVWKLYFNHPQDVPAIRDRIRAHPAVVDIYEYDIPFAKRYLIDKGLIPMEGDEELTMLAFAIATLYHEGEEFGTGPILMISYADGSEARVITWKKIDLPYVDVVSTEKEMIKRFLRVVREKDPDVLITYNGDNFDFAYLKKRCEELGIKFTLGRDGSEPKIQRMGDRFAVEVKGRIHFDLYPVIRRTINLPTYTLEAVYEAVFGKPKEKVYAEEIAQAWESGEGLERVARYSMEDAKVTYELGREFFPMEAQLSRLIGQSLWDVSRSSTGNLVEWFLLRKAYKRNELAPNKPDERELARRRGGYAGGYVKEPERGLWDNIVYLDFRSSAVSIIITHNVSPDTLNREGCKEYDVAPEVGHKFCKDFPGFIPSLLGDLLEERQKIKRKMKATVDPLEKKLLRYRQRLIKILANSFYGYYGYAKARWYCKECAESVTAWGREYIEMVIRELEEKFGFKVLYADTDGLHATIPGADAETVKKKAKEFLKYINPKLPGLLELEYEGFYVRGFFVTKKKYAVIDEEGKITTRGLEIVRRDWSEIAKETQARVLEAILKHGDVEEAVRIVKEVTEKLSKYEVPPEKLVIHEQITRDLRDYKATGPHVAVAKRLAARGVKIRPGTVISYIVLKGSGRIGDRAIPADEFDPTKHRYDAEYYIENQVLPAVERILKAFGYRKEDLRYQKTKQVGLGAWLKVKGKK
B3: D480G: 9° N-III mutant D480G, nucleotide binding pocket (protein)
chain: B2 chain with R480G
B4: D480A: 9° N-III mutant D480A, nucleotide binding pocket (protein)
chain: B2 chain with R480A
B5: I486W: 9° N-III mutant I486W, nucleotide binding pocket (protein)
chain: B2 chain with R480D, I486W
B6: V410P: 9° N-III mutant V410P, nucleotide binding pocket (protein)
chain: B2 chain with V410P, R480D
B7: I486F: 9° N-III mutant I486F, nucleotide binding pocket (protein)
chain: B2 chain with R480D, I486F
B8: I486R: 9° N-III mutant I486R, nucleotide binding pocket (protein)
chain: B2 chain with R480D, I486R
B9: I486Y: 9° N-III mutant I486Y, nucleotide binding pocket (protein)
chain: B2 chain with R480D, I486Y
B10: D480W: KOD^exo− mutant D480W (protein)
chain: B2 chain with R480W
B11: I486P: 9° N-III mutant I486P, nucleotide binding pocket (protein)
chain: B2 chain with R480D, I486P
B12: D480M: 9° N-III mutant D480M, nucleotide binding pocket (protein)
chain: B2 chain with R480M
B13: D480N: KOD^exo− mutant D480N (protein)
chain: B2 chain with R480N
B14: K477F: 9° N-III mutant K477F, nucleotide binding pocket (protein)
chain: B2 chain with K477F, R480D
B15: D480I: 9° N-III mutant D480I, nucleotide binding pocket (protein)
chain: B2 chain with R480I
B16: D480H: KOD^exo− mutant D480H (protein)
chain: B2 chain with R480H
B17: V410G: 9° N-III mutant V410G, nucleotide binding pocket (protein)
chain: B2 chain with V410G, R480D
B18: I486A: 9° N-III mutant I486A, nucleotide binding pocket (protein)
chain: B2 chain with R480D, I486A
B19: D480P: 9° N-III mutant D480P, nucleotide binding pocket (protein)
chain: B2 chain with R480P
B20: V282F: 9° N-III mutant V282F, nucleotide binding pocket (protein)
chain: B2 chain with V282F, R480D
B21: L485F: 9° N-III mutant L485F, nucleotide binding pocket (protein)
chain: B2 chain with R480D, L485F

What was measured:
[1] = biological target: T1, Bst-Lg (Bst Large fragment DNA polymerase); experiment: Polymerase end point (PEP) assay; type: biochemical; conditions: read-out: Average IC50 ± SD
Experimental: (§1) Accordingly, the end-point concentration, IC50 value, of the respective nucleotide was calculated.

THN (Therminator) = experiment: Polymerase end point (PEP) assay; type: biochemical; conditions: read-out: Average IC50 ± SD
Experimental: as §1

9°N-I DNA polymerase = biological target: T2, 9°N-I DNA polymerase (Thermococcus sp., UniProt Q56366, A485L/D141A/E143A); experiment: Pre-steady state kinetic assay; type: biochemical, Thermococcus sp. 9° N-7 strain; conditions: 30° C.
T2 construct: made in house; host or cells: E. coli BL21
Experimental: The rate of incorporation of the correct base onto the 25/36 mer duplex was determined in a reaction. The reaction was initiated by combining the solution containing the enzyme and DNA substrate with the second solution containing Mg^2+/dNTP. The reaction was quenched with 0.25 M EDTA (final concentration), pH 8.0. A rapid quench instrument (KinTek Instrument Corp., State College, Pa.) was used for reaction times ranging from 20 ms to 20 s.

9°N-III DNA polymerase = biological target: T3, 9°N-III DNA polymerase (Thermococcus sp., UniProt Q56366, A485L/D141A/E143A/L408S/P410V/Y409A); type: biochemical, Thermococcus sp. 9° N-7 strain; conditions: PEP assay, read-out: Average IC50 ± SD
T3 construct: 6x histidine tag (C); made in house; host or cells: E. coli BL21
Experimental: as §1

[2] = biological target: T4, Klenow (exo-) fragment DNA polymerase (Escherichia coli, UniProt P00582, D355A/E357A); type: biochemical; conditions: PEP assay, read-out: Average IC50 ± SD
T4 construct: Klenow (exo-) fragment DNA polymerase; purchased New England Biolabs
Experimental: as §1

5′Q-3′-Ga [3] = type: biochemical; conditions: KOD^exo− background
5′Q-3′-Ga [4] = system: 5′Q-3′-Ga

Molecule | conversion rate (C.R.) of extension product (5′Q-3′-Ga [4]) | also measured
Nc1ncnc2c1ncn2[C@H]1C[C@H](O)[C@@H](COP(=O)(O)OP(=O)(O)OP(=O)(O)O)O1 [dATP] | – | IC50 [1]: 2.54 ± 0.067 nM; IC50 (THN (Therminator)): 0.526 ± 0.008 nM; Kd (9°N-I DNA polymerase): 8 µM; kpol (9°N-I DNA polymerase): 132.4 s⁻¹; kpol/Kd (9°N-I DNA polymerase): 16.55 µM⁻¹ s⁻¹; IC50 (9°N-III DNA polymerase): 14 ± 0.6 nM; IC50 [2]: 0.589 ± 0.008 nM
B1 | – | conversion of 5′Q-3′-Ga (5′Q-3′-Ga [3]): 37%
B2 | 83% | –
B3 | 80% | –
B4 | 81% | –
B5 | 81% | –
B6 | 78% | –
B7 | 81% | –
B8 | 87% | –
B9 | 82% | –
B10 | – | conversion of 5′Q-3′-Ga (5′Q-3′-Ga [3]): 77%
B11 | 100% | –
B12 | 80% | –
B13 | – | conversion of 5′Q-3′-Ga (5′Q-3′-Ga [3]): 83%
B14 | 82% | –
B15 | 82% | –
B16 | – | conversion of 5′Q-3′-Ga (5′Q-3′-Ga [3]): 84%
B17 | 69% | –
B18 | 82% | –
B19 | 82% | –
B20 | 66% | –
B21 | 74% | –
